Biological target: UbAMC (Homo sapiens (Human)) (UniProt P0CG48)

GST-Bap-1 (enzyme)
Km, fluorogenic ubiquitin cleavage assay: 0.5 µM
